Results: article PMC4687643, “SH3 Domains Differentially Stimulate Distinct Dynamin I Assembly Modes and G Domain Activity” (PLoS ONE, 2015)

Legend:
Assay in all cases: cell-based or functional assay
[1] = biological target: T1, GST-amphiphysin I SH3 domain (human, UniProt P49418 622-695)
T1 sequence (looked up): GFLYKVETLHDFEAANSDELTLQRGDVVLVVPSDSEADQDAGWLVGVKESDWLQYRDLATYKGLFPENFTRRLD

[2] = biological target: T2, GST-Formin Binding Protein 17 (FBP17) SH3 domain (human, UniProt Q96RU3 550-611)
T2 sequence (looked up): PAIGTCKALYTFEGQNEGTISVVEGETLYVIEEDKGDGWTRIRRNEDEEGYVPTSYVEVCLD

[3] = biological target: T3, GST-Cdc42 interacting protein 4 (CIP4) SH3 domain (human, UniProt Q15642 540-601)
T3 sequence (looked up): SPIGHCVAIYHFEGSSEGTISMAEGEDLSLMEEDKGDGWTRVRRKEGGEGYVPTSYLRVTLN

[4] = biological target: T4, GST-Actin binding protein 1 (Abp1) SH3 domain (mouse, UniProt Q62418 377-436)
T4 sequence (Q62418 377-436): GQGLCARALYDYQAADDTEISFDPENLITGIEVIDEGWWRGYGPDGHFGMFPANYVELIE

GST-cortactin SH3 domain [5] = biological target: T5, GST-cortactin SH3 domain (mouse, UniProt Q60598 488-546)
T5 sequence (Q60598 488-546): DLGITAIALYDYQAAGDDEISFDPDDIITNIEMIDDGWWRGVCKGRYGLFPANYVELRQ

[6] = biological target: T6, GST-amphiphysin II SH3 domain (human, UniProt O00499 520-593)
T6 sequence (looked up): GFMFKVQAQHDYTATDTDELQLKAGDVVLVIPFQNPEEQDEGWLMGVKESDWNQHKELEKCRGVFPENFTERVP

[7] = biological target: T7, GST-endophilin I SH3 domain (mouse, UniProt Q62420 290-349)
T7 sequence (Q62420 290-349): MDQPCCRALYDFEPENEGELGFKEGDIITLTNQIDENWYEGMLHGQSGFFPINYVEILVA

[8] = biological target: GST-intersectin I SH3A domain (Xenopus laevis)
[9] = biological target: GST-intersectin I SH3C domain (Xenopus laevis)
[10] = biological target: GST-intersectin I SH3E domain (Xenopus laevis)
[11] = biological target: T8, GST-syndapin I SH3 domain (mouse, UniProt Q61644 382-441)
T8 sequence (Q61644 382-441): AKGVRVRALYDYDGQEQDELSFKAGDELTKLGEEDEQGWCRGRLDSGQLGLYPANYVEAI

[12] = biological target: T9, GST-sorting-nexin 9 (SNX9) SH3 domain (human, UniProt Q9Y5X1 1-62)
T9 sequence (Q9Y5X1 1-62): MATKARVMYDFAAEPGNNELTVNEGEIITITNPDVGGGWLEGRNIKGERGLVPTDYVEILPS

GST-p85 SH3 domain [13] = biological target: T10, GST-p85 SH3 domain (bovine, UniProt P23727 3-79)
[14] = biological target: T1, GST-amphiphysin I SH3 domain; remark: listed apart in the source
[15] = biological target: T2, GST-Formin Binding Protein 17 (FBP17) …; remark: listed apart in the source
[16] = biological target: T3, GST-Cdc42 interacting protein 4 (CIP4) …; remark: listed apart in the source
[17] = biological target: T4, GST-Actin binding protein 1 (Abp1) SH3 …; remark: listed apart in the source
GST-cortactin SH3 domain [18] = biological target: T5, GST-cortactin SH3 domain; remark: listed apart in the source
[19] = biological target: T6, GST-amphiphysin II SH3 domain; remark: listed apart in the source
[20] = biological target: T7, GST-endophilin I SH3 domain; remark: listed apart in the source
[21] = biological target: GST-intersectin I SH3A domain (Xenopus laevis); remark: listed apart in the source
[22] = biological target: GST-intersectin I SH3C domain (Xenopus laevis); remark: listed apart in the source
[23] = biological target: GST-intersectin I SH3E domain (Xenopus laevis); remark: listed apart in the source
[24] = biological target: T8, GST-syndapin I SH3 domain; remark: listed apart in the source
[25] = biological target: T9, GST-sorting-nexin 9 (SNX9) SH3 domain; remark: listed apart in the source
GST-p85 SH3 domain [26] = biological target: T10, GST-p85 SH3 domain; remark: listed apart in the source

dynamin GTPase activity stimulated by the GST-SH3 domain (ELIPA, 30 mM NaCl), fold change relative to no SH3 [1]: 5.32 fold change | dynamin GTPase activity stimulated by the GST-SH3 domain (ELIPA, 30 mM NaCl), fold change relative to no SH3 [2]: 3.97 fold change | dynamin GTPase activity stimulated by the GST-SH3 domain (ELIPA, 30 mM NaCl), fold change relative to no SH3 [3]: 0.83 fold change | dynamin GTPase activity stimulated by the GST-SH3 domain (ELIPA, 30 mM NaCl), fold change relative to no SH3 [4]: 1.03 fold change | dynamin GTPase activity stimulated by the GST-SH3 domain (ELIPA, 30 mM NaCl), fold change relative to no SH3 (GST-cortactin SH3 domain [5]): 5.49 fold change | dynamin GTPase activity stimulated by the GST-SH3 domain (ELIPA, 30 mM NaCl), fold change relative to no SH3 [6]: 1.09 fold change | dynamin GTPase activity stimulated by the GST-SH3 domain (ELIPA, 30 mM NaCl), fold change relative to no SH3 [7]: 2.82 fold change | dynamin GTPase activity stimulated by the GST-SH3 domain (ELIPA, 30 mM NaCl), fold change relative to no SH3 [8]: 14.7 fold change | dynamin GTPase activity stimulated by the GST-SH3 domain (ELIPA, 30 mM NaCl), fold change relative to no SH3 [9]: 2.1 fold change | dynamin GTPase activity stimulated by the GST-SH3 domain (ELIPA, 30 mM NaCl), fold change relative to no SH3 [10]: 1.83 fold change | dynamin GTPase activity stimulated by the GST-SH3 domain (ELIPA, 30 mM NaCl), fold change relative to no SH3 [11]: 5.9 fold change | dynamin GTPase activity stimulated by the GST-SH3 domain (ELIPA, 30 mM NaCl), fold change relative to no SH3 [12]: 5.12 fold change | dynamin GTPase activity stimulated by the GST-SH3 domain (ELIPA, 30 mM NaCl), fold change relative to no SH3 (GST-p85 SH3 domain [13]): 2.24 fold change | rate of dynamin GTPase activity stimulated by the GST-SH3 domain (ELIPA, 30 mM NaCl, basal rate subtracted) [14]: 0.029 μmoles Pi/mg of dyn/min | rate of dynamin GTPase activity stimulated by the GST-SH3 domain (ELIPA, 30 mM NaCl, basal rate subtracted) [15]: 0.016 μmoles Pi/mg of dyn/min | rate of dynamin GTPase activity stimulated by the GST-SH3 domain (ELIPA, 30 mM NaCl, basal rate subtracted) [16]: 0 μmoles Pi/mg of dyn/min | rate of dynamin GTPase activity stimulated by the GST-SH3 domain (ELIPA, 30 mM NaCl, basal rate subtracted) [17]: 0 μmoles Pi/mg of dyn/min | rate of dynamin GTPase activity stimulated by the GST-SH3 domain (ELIPA, 30 mM NaCl, basal rate subtracted) (GST-cortactin SH3 domain [18]): 0.031 μmoles Pi/mg of dyn/min | rate of dynamin GTPase activity stimulated by the GST-SH3 domain (ELIPA, 30 mM NaCl, basal rate subtracted) [19]: 0.001 μmoles Pi/mg of dyn/min | rate of dynamin GTPase activity stimulated by the GST-SH3 domain (ELIPA, 30 mM NaCl, basal rate subtracted) [20]: 0.012 μmoles Pi/mg of dyn/min | rate of dynamin GTPase activity stimulated by the GST-SH3 domain (ELIPA, 30 mM NaCl, basal rate subtracted) [21]: 0.101 μmoles Pi/mg of dyn/min | rate of dynamin GTPase activity stimulated by the GST-SH3 domain (ELIPA, 30 mM NaCl, basal rate subtracted) [22]: 0.008 μmoles Pi/mg of dyn/min | rate of dynamin GTPase activity stimulated by the GST-SH3 domain (ELIPA, 30 mM NaCl, basal rate subtracted) [23]: 0.005 μmoles Pi/mg of dyn/min | rate of dynamin GTPase activity stimulated by the GST-SH3 domain (ELIPA, 30 mM NaCl, basal rate subtracted) [24]: 0.033 μmoles Pi/mg of dyn/min | rate of dynamin GTPase activity stimulated by the GST-SH3 domain (ELIPA, 30 mM NaCl, basal rate subtracted) [25]: 0.027 μmoles Pi/mg of dyn/min | rate of dynamin GTPase activity stimulated by the GST-SH3 domain (ELIPA, 30 mM NaCl, basal rate subtracted) (GST-p85 SH3 domain [26]): 0.009 μmoles Pi/mg of dyn/min
B1: endogenous sheep brain dynamin I (enzyme)
chain: MGNRGMEDLIPLVNRLQDAFSAIGQNADLDLPQIAVVGGQSAGKSSVLENFVGRDFLPRGSGIVTRRPLVLQLVNATTEYAEFLHCKGKKFTDFEEVRLEIEAETDRVTGTNKGISPVPINLRVYSPHVLNLTLVDLPGMTKVPVGDQPPDIEFQIRDMLMQFVTKENCLILAVSPANSDLANSDALKVAKEVDPQGQRTIGVITKLDLMDEGTDARDVLENKLLPLRRGYIGVVNRSQKDIDGKKDITAALAAERKFFLSHPSYRHLADRMGTPYLQKVLNQQLTNHIRDTLPGLRNKLQSQLLSIEKEVEEYKNFRPDDPARKTKALLQMVQQFAVDFEKRIEGSGDQIDTYELSGGARINRIFHERFPFELVKMEFDEKELRREISYAIKNIHGIRTGLFTPDLAFEATVKKQVQKLKEPSIKCVDMVVSELTATIRKCSEKLQQYPRLREEMERIVTTHIREREGRTKEQVMLLIDIELAYMNTNHEDFIGFANAQQRSNQMNKKKASGNQDEILVIRKGWLTINNIGIMKGGSKEYWFVLTAENLSWYKDDEEKEKKYMLSVDNLKLRDVEKGFMSSKHIFALFNTEQRNVYKDYRQLELACETQEEVDSWKASFLRAGVYPERVGDKEKASETEENGSDSFMHSMDPQLERQVETIRNLVDSYMAIVNKTVRDLMPKTIMHLMINNTKEFIFSELLANLYSCGDQNTLMEESAEQAQRRDEMLRMYHALKEALSIIGDINTTTVSTPMPPPVDDSWLQVQSVPTGRRSPTSSPTPQRRAPAVPPARPGSRGPAPGPPPAGSALGGAPPVPSRPGASPDPFGPPPQVPSRPNRAPPGVPSRSGQASPSRPESPRPPFDL
